Laboratory results: patent publication US20230330143A1 (GAMMADELTA THERAPEUTICS, published 2023)

The binders below were run against Vδ1 chain-containing γδ TCR on γδ T cells (assay: cell-based or functional assay).

Binder | Killing assay (EC50 µg/ml - 2 or 3 donors) | T cell degranulation (EC50 µg/ml - 3 donors)
1245_P02_G04 (antibody, V domains shown) VH: QVQLQQSGPGLVKPSQTLSLTCAISGDSVSSKSAAWNWIRQSPSRGLEWLGRTYYRSKWSTDYAASVKSRITINPDTSKNQLSLQLNSVTPEDTAVYYCARTWSGYVDVWGQGTLVTVSS VL: DIQMTQSPPALSASVGDRVTITCRASQDINDWLAWYQHKPGKAPKLLIYDASSLESGVPSRFSGSGSGTEFTLTISSLQPDDFATYYCQQSYSTPQVTFGQGTRLEIK | 0.1 µg/mL | 0.002 µg/mL
1139_P01_E04 (antibody, V domains shown) VH: QVQLQQSGPGLVKPSQTLSLTCAISGDSVSSNSAAWNWIRQSPSRGLEWLGRTYYRSKWYNDYAVSVRSRITINPDTSKNQFSLQLNSVTPEDTAVYYCARSWNDAFDIWGQGTTVTVSS VL: DIVMTQSPSTLSASIGDRVTITCRAGQSISTWLAWYQQKPGKAPKLLIYDASSLESGVPLRFSGSGSGTDFTLTISSLQPEDFATYYCQQSYSTPLTFGGGTKVEIK |  | 0.005 µg/mL
1245_P01_G09 (antibody, V domains shown) VH: QVQLQQSGPGLVKPSQTLSLTCAISGDSVSSNSAAWNWIRQSPSRGLEWLGRTYYGSKWYNEYALSVKSRIIINPDTSKNQFSLQLNSVTPEDTAVYYCARDYYYSMDVWGQGTLVTVSS VL: DIVMTQSPSTLSASIGDRVTITCRAGQSISTWLAWYQQKPGKAPKLLIYDASSLESGVPLRFSGSGSGTEFTLAISSLQPDDFATYYCQQSYSTPVTFGQGTKVEIK |  | 0.001 µg/mL
1252_P01_C08 (antibody, V domains shown, Anti-Vδ1 antibody with a lambda light chain) VH: EVQLLESGGGLVQPGRSLRLSCAASGFTVSSNYMSWVRQAPGKGLEWVSVIYSGGSTYYADSVKGRFTISRDNSKNTLYLQMNSLRAEDTAVYYCASPIELGAFDIWGQGTLVTVSS VL: SSYELTQPPSVSVAPGKTARITCGGNNIGSQSVHWYQQKPGQAPMLVIYYDSDRPSGIPERFSGSNSGNTATLTISRVEAGDEADYYCQVWDSSSDHVVFGGGTKLTVL | 0.02 µg/mL | 
1245_P01_G06 (antibody, V domains shown) VH: QVQLVESGGGLVKPGGSLRLSCAASGFTFSDYYMSWIRQAPGKGLEWVSYISSSGSTIYYADSVKGRFTISRDNAKNSLYLQMNSLRAEDTAVYYCARHSWNDAFDVWGQGTLVTVSS VL: not shown |  | 0.001 µg/mL
1245_P01_E07 (antibody, V domains shown) VH: QVQLVESGGGLVKPGGSLRLSCAASGFTFSDYYMSWIRQAPGKGLEWVSYISSSGSTIYYADSVKGRFTISRDNAKNSLYLQMNSLRAEDTAVYYCARVDYADAFDIWGQGTLVTVSS VL: DIQMTQSPSSLSASVGDRVTIACRAGQSIGTYLNWYQQKPGKAPKLLIYVASSLQSGVPSRFSGSGSGTEFTLTISSLQPEDFATYYCQQSYSTLLTFGRGTKVEIK | 0.06 µg/mL | 
